In the DeepSol protein solubility set:

Experiment: soluble on expression in E. coli; label from the status in PepcDB or PDB records

**Q.** Which “soluble on expression in E. coli” value does the source give for “MNTDKQVYPLYYEAKNDKVRKRLGIKGGFYWAEAKKLSIAISRGAVAIDDAGYDEDDFKKPVRVNLPVVDDLPPEGVFDTEFCNRYEKGGEDGITMVFIASSPSVQDKPASTDNTNVNGEDMTEIEENMLLPVSGQELPIRWLAQHGSEKPVTHVSRDELQALHIARDEELPAVTALAVSHKTSLLDPLEIRDLHKLVRDTDRVFPNPGNSSLGLMTAFFEAYMDADYTDRGLLTKEWMKGNRVSRITRTASGANAGGGNLTDRGEGFVHDLTSLARDVATGVLARSMDVDIYNLHPAHAKRVEEIIAENKPPFSVFRDKFITMPGGMDYSRAIVVASVKEAPIGIEVIPAHVTEYLNKVLTETDHANPDPEIVDIACGRSSAPMPQRVTEEGKQDDEEKTQPSGAMADEQATAETMEPDATEHHQNTQPLDAQSQVNSVDEKYQELRAELHEARKNIPPKNPVDADKLLAALR” here?
**A.** The value was “not soluble”.

**Q.** Which “soluble on expression in E. coli” value does the source give for “MKPSTSKTTHSPPPEEPTAPFVNDNLPNPEDEPTIGDLNAFHSGEELHRQRSELARANYEKARPEMIANQRAVTAHLFNRYTEDEERKRVEQQKNKEAMNASTSAPTSSRNGGQSVENRKRRNDVVVAPPTSEEEWKRAQQQHWMGQQQPQMQFQMQQQYHSQQQQYIMMQQQHHHMTGMQQIHHQMPSTSSADSIRSVPTPASSMHQPSPAEMRNGCGMSRNATMDMTCSPMSGGQPIVDENNLAVPEGEWFDKLALAVAEQYNVDTILGPDTYDTFLAELDFSSSESPTKQSPMEMNGDRMPSTAPPPAQNPQHIAQLQQQQNKMRLMQQQQQEMQRIEQQRRQQIMQQQQQQQQQEHQRQQMLLQQQQQQQQMQQHHQMNGGGQFATQAHQQAAYMQQMQRMEQIRHQQQQAQQHQQAQQQHQQQAQHHQMGYGIPNGYPQQMHMHPPAYGAHHMPQPTAFANIN” here?
**A.** Its value is “not soluble”.

**Q.** With “ASGRRAPRTGLLELRCGAGSGAGGERWQRVLLSLAEDALTVSPADGEPGPEPEPAQLNGAAEPGAAPPQLPEALLLQRRRVTVRKADAGGLGISIKGGRENKMPILISKIFKGLAADQTEALFVGDAILSVNGEDLSSATHDEAVQALKKTGKEVVLEVKYMKEVSPYFKNSAGGTSVGWDSPPASPLQRQPSSPGPQPRNLSEAKHVSLKMAYVSRRCTPTDPEPRYLEICAADGQDAVFLRAKDEASARSWAGAIQAQIGT” as the sequence, how does the “soluble on expression in E. coli” value read?
**A.** Its value is “soluble”.

**Q.** With “MQVLSMIFTREILEEAINYGLTKNTTSFTRIKAGIYKTEREKHRDLPSHYIYTACEDASERLDSFNKLKKRGRSYTDRPSVRRVTVHLDDHLWKFSLNVISIATKRGRVCISPIFPKIFWRYYNDNWLIASGARFKLLKGNVVEFFIVFKKDVKSYDPRGFIPVDLNEDSVSVLINGKPILLETNTRMITLGYEYKRRSITNGRSTKDREVRRKLRERDKKLDVRRKFAKLIVKEAFGSRSAIVLEDLPRGVPEHMVKGVKDKQLRLRIYRSAFSSMKNAIVEKAREFGVPVILVDPSYTSSICPVHGSKIIYQPDGGSAPRVGVCGKGGERWHRDVVALYNLRKRAGDVSPVPLGSKESHDPPVVQVVEGLEHHHHHH” as the sequence, how does the “soluble on expression in E. coli” value read?
**A.** The value was “soluble”.

**Q.** With “MSLNARSYLEQQLTGQNANAANALALAITQSQADKAMAETLINATFDQGYFHHIRWQGADGKVRVDRVNEAVFPAAPGWFRALLPLSPQPGSALVTAGWMQAGEIRVEAALGYAYESLWRGALQTMLWLLGTGLLAGLLGSIDIFKLRRDLQRVVNQARAISEHRFQRMTEPKVPELARVVGAMNQMVERLQSFLGEQSEEVEQLRRERHTDPVTGLPNREALEQAVSSTLAEEDDVRGCLLLLRLAGLAELNQRLGGERADALLVRLAADLEDLAARRKGWMAARLRGADFAVFCPELDMDGGRQLAETLCEQLALYRQMGLSDRDGIGHIGVCGIVQGDGLASLLARASQALAEAEAAGDNQWRVDDGAGPDVGSEWDWRELIEAACREHSEGHHHHHH” as the sequence, how does the “soluble on expression in E. coli” value read?
**A.** The value was “soluble”.

**Q.** With “MSLAELDLTGGMDEARGDIADLLGKEERKILTTGNAEIDKKIADGLPLGSLTLIEGENDTGKSVLTQQFIWGSMHNNLRVDLFSTELTTKSFLTQMESMSLDISDFFAWGYIRLFHCHLVEFKWTPDAMNDILERIITHVKFSNTDVAIIDSLTIFTEYTTNEAVLTFLTQAKNICDQGKTILITMHSYAFTDEVLTRVRSICDAHLLLMRKLMGDKYVMVLEVVKVRGARKTTGNLVSFEVHPGYGMKIIPVSVAKVEGHHHHHH” as the sequence, how does the “soluble on expression in E. coli” value read?
**A.** The value was “soluble”.

**Q.** Which “soluble on expression in E. coli” value does the source give for “SNAMIYPDETMLYAPVEWHDCSEGYTDIRYEKSTDGIAKITINRPQVRNAFRPLTVKEMIQALADARYDDNVGVIILTGEGDKAFCAGGDQKVRGDYGGYQDDSGVHHLNVLDFQRQIRTCPKPVVAMVAGYSIGGGHVLHMMCDLTIAAENAIFGQTGPKVGSFDGGWGASYMARIVGQKKAREIWFLCRQYDAQQALDMGLVNTVVPLADLEKETVRWCREMLQNSPMALRCLKAALNADCDGQAGLQELAGNATMLFYMTEEGQEGRNAFNQKRQPDFSKFKRNP” here?
**A.** Its value is “soluble”.

**Q.** With “MALSGIYKLDDGKPYLNNCFPARNLLRVPEEGQGHWLVVQKGNLKKKPKGLVGAQAERRESLKATSFEFKGKKESRRENQVDLPGHILDQAFLLKHHCVRKPSDLCTINAKENDFKHFHSVIYINASENLLPLEAFHTFPALKELDLAFNGIKTIYVKYGDFKLLEFLDLSFNSLTVEAICDLGILPHLRVLLLTGNGLTSLPPNLAVAEQEASVTSLTSKRYILRFPALETLMLDDNRLSNPSCFASLAGLRRLKKLSLDENRIIRIPYLQQVQLYDESVDWNGGRGSPHKEPQFMLQSKPRMLEDSDEQLDYTVLPMKKDVDRTGVPPLLKSFLQERLGIHLIRRKIVKPKHHVLMSRKESWKVKSEIPKVPKQPLVLHHPRMRTTKSPSKDMLEPEAELAEDLPTTKSTSVESEMPTENLEGHSPSCRTFVPLPPICSNSTVHSEETLSHLSDTTVRLSPERPSDEDSKSTESIFLTQVSELPSSVIHKDDLELKEKDQKKPPTAPREVKGTRRKLPTAFLPSKYHGYEELLTAKPDPAFIEPKGIQKNAQALQQMLKHPLLCHSSKPKLDTLQKPYVHKEKRVLSCTSGQNGGW” as the sequence, how does the “soluble on expression in E. coli” value read?
**A.** The value was “not soluble”.

**Q.** With “MGHHHHHHSHMMQESGTETKSNGSAIQNGSGGSNHLLECGGLREGRSNGETPAVDIGAADLAHAQQQQQQWHLINHQPSRSPSSWLKRLISSPWELEVLQVPLWGAVAETKMSGPVCQPNPSPF” as the sequence, how does the “soluble on expression in E. coli” value read?
**A.** The value was “not soluble”.

**Q.** Which “soluble on expression in E. coli” value does the source give for “MDLEMMLDEDYKEGICLINFSQIALSTALVNFPDKEKINLSMVRHLILNSIKFNVKKAKTLGYTKIVLCIDNAKSGYWRRDFAYYYKKNRGKAREESTWDWEGYFESSHKVIDELKAYMPYIVMDIDKYEADDHIAVLVKKFSLEGHKILIISSDGDFTQLHKYPNVKQWSPMHKKWVKIKSGSAEIDCMTKILKGDKKDNVASVKVRSDFWFTRVEGERTPSMKTSIVEAIANDREQAKVLLTESEYNRYKENLVLIDFDYIPDNIASNIVNYYNSYKLPPRGKIYSYFVKAGLSKLTNSINEF” here?
**A.** Its value is “soluble”.

**Q.** Which “soluble on expression in E. coli” value does the source give for “MGYRIEMATRNPFDIDHKSKYLREAALEANLSHPETTPTMLTCPIDSGFLKDPVITPEGFVYNKSSILKWLETKKEDPQSRKPLTAKDLQPFPELLIIVNRFVETQTNYEKLKNRLVQNARVAARQKEYTEIPDIFLCPISKTLIKTPVITAQGKVYDQEALSNFLIATGNKDETGKKLSIDDVVVFDELYQQIKVYNFYRKREMQKNQIQPSVSSGFGFFSLNFLTSWLWGTEEKKEKTSSDMTY” here?
**A.** Its value is “not soluble”.

**Q.** Which “soluble on expression in E. coli” value does the source give for “MSKKIKVGIVGATGYTGVELLRLLAAHPDVEVAAVTSRSEAGTAVADYFPSLRGVYGLAFQTPDEAGLEQCDIVFFATPNGIAMKDAPRLIEQGVRVIDLSADFRIRDIPTWEHWYGMTHAAPDLVSQAVYGLSELNREAVAQARLVANPGCYPTCVSLPLVPLLRQCRLKPGMPLIADCKSGVSGAGRKGNVGSLLCEAGDNFKAYGIAGHRHLPEIRQTIAGLQDGIAEGFVFTPHLAPMIRGMHATVYLHLSDGSDPETVLRDYYRDSPFVDILPTGSAPETRSVRGANLCRISIQQAAQSDVWVVLSVIDNLVKGAAGQAVQNMNIMFGLEETHGLDAIPLLP” here?
**A.** The value was “not soluble”.

**Q.** With “TPQQRRLSMARRTAASLGYNECVSYTFIDQASAALFGGGTDATMLENPISSEMSHMRPDLLPGLLAAAARNQARGFADLALFEAGPVFHGGEPGEQRAQIAGLLVGRTGPKDVHGAARAVDLYDAKADAEAVLAAMGAPAKVQILRDGDGWWHPGRHGRICLGPKKVLGVFGELHPRVLQAMDVKGPAVAFVLWPEEVPLPRKSGTTRAALAL” as the sequence, how does the “soluble on expression in E. coli” value read?
**A.** The value was “not soluble”.
